Measured values: patent US20210380714A1

Experiments:
[1] = molecular target: recombinant human soluble MSLN (rHuMSLN sol.) (human) (UniProt Q13421); test: Biacore, soluble human MSLN
[2] = molecular target: native human MSLN expressed on the cell surface (N87 / NCI-N87 tumor cells) (human) (UniProt Q13421); test: KinExA, native hu MSLN on cells
[3] = molecular target: native human MSLN expressed on the cell surface (N87 / NCI-N87 tumor cells) (human) (UniProt Q13421); test: KinExA on N87 cells compared with Biacore on rHuMSLN sol.
[4] = molecular target: recombinant human soluble MSLN (rHuMSLN sol.) (human) (UniProt Q13421); test: Biacore; 237 captured on the sensor chip, rHuMSLN sol. in solution
[5] = molecular target: native human MSLN expressed on the cell surface (N87 / NCI-N87 tumor cells) (human) (UniProt Q13421); test: KinExA equilibrium binding to N87 tumor cells expressing native human MSLN

Chain of native human MSLN expressed on the cell surface (N87 / NCI-N87 tumor cells) (human) (Q13421 296-606 limits assumed): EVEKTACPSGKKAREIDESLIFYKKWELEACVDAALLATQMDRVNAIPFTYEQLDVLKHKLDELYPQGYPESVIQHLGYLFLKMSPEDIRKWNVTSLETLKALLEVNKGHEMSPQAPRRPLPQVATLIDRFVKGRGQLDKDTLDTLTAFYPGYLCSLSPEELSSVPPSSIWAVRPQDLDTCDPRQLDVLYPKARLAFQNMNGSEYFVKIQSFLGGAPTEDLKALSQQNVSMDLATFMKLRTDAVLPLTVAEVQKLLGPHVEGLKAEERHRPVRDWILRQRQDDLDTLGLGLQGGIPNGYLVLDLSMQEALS
Chain of recombinant human soluble MSLN (rHuMSLN sol.) (human) (Q13421 296-606 limits assumed): as above

Binder | Kd [1] | Kd [2] | fold better binding than to soluble MSLN [3] | Kd [4] | Kd [5]
1.33.1 (antibody, V domains shown) VH: QVQLQESGPGLVKPSQTLSLTCTVSGGSISGDGHFWSWIRQHPGKGLEWIGYIYYSGSTYYNPSLKSRVTISVDTSKNQFSLKLSSVTAADTAVYYCARLRGGYKFDYWGQGTLVTVSS VL: DIVMTQTPLSLSVAPGQPASISCQSSLSLQHSNGKTYLYWYLQKPGQPPQLLIYEVSNRFSGVPDRFSGSGSGTDFTLKISRVEAEDVGIYYCMQSKQLPCSFGQGTKLEIK | 0.965 nM |  |  |  | 
158.3 (antibody, V domains shown) VH: QVQLQESGPGLVKPSETLSLTCTVSGGSIISHYWSWIRQPPGKGLEWIGYIYYSGSTNYNPSLKSRVTISVDTSKNQFSLKLTSVTAADTAVYYCARDGWSAFDYWGQGTLVTVSS VL: DIQMTQSPSSLSASVGDRVTITCRASQGIRNALGWYQQKPGKAPKRLIYAASSLQSGVPSRFSGSGSGTEFTLTISSLQPEDFATYYCLQHNSYPRTFGQGTKVEIRR | 2.4 nM | 0.0122 nM |  |  | 
151 (antibody, V domains shown) VH: QVQLQESGPGLVKPSETLSLTCTVSGGSISSYYWSWIRQPPGKGLEWIGYIYYSGSTNYNPSLKSRVTISVDTSKNQFSLKLSSVTAADTAVYYCARVDYKAFDIWGQGTMVTVSS VL: DIQMTQSPSSLSASVGDRVTITCRASQGIRNDLHWYQQKPGKAPKRLIYAASSLQSGVPSRFSGSGSGTEFTLTISSLQPEDFATYYCLQHYSYPWTFGQGTKVEIK | 17.4 nM | 0.03 nM |  |  | 
Ab237 (Hu-anti-huMesothelin-2.37-IgG1) (antibody, V domains shown) VH: QVQLQESGPGLVKPSQTLSLTCTVSGGSINNNNYYWTWIRQHPGKGLEWIGYIYYSGSTFYNPSLKSRVTISVDTSKTQFSLKLSSVTAADTAVYYCAREDTMTGLDVWGQGTTVTVSS VL: DIQMTQSPSSLSASVGDRVTITCRASQSINNYLNWYQQKPGKAPTLLIYAASSLQSGVPSRFSGSRSGTDFTLTISSLQPEDFAAYFCQQTYSNPTFGQGTKVEVK |  |  | 30 fold | 0.097 nM | 0.0035 nM
